assay: yeast display, Sf9 membrane polyspecificity reagent, FACS + sequencing; frameworks hold sequencing errors
Procedure, shortened: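 Nanobodies came from a synthetic yeast display library in Saccharomyces cerevisiae BJ5465, induced with galactose for 36–48 hours and stained for 1 hour at 4 °C with 10% biotinylated, detergent-solubilized Sf9 membrane reagent. Cells were enriched on streptavidin microbeads and then FACS-sorted, with low and high (top ~1%) gates set on anti-HA fluorescence for expression and streptavidin fluorescence for reagent binding. Each polyreactivity label reflects the gate a clone came from. Genes were amplified by colony PCR, sequenced by MiSeq 2 × 250 and filtered by CDR length.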

Sequence | polyreactivity (PSR sort gate)
QVQLVESGGGLVQAGGSLRLSCAASGGIFGAYAMGWYRQAPGKERELVAASDLTDGDTYYADSVKGRFTSSRDNAKNTVYLQMNSLKPEATAVYYCAAEALYWVVDALDYEGDYWGQGTQVTVSS | high polyreactivity
QVQLVESGGGLVQAGGSLRLSCAASGGIFGYYVMGWYRQAPGKERELVAVITRGGSTNYADSVKGRFTISRDNAKNTVYLQMNSLKPEDTAVYYFAKDVPYRRVRSEYWGQGTQVTVSS | low polyreactivity
QVQLVESGGGLVQAGGSLRLSCAASGGIFHGYVMGWYRQEPGKERELVASIRTRGVRTYYADSVKGRFTISRDNAKNTVYLQMNSLKPEDTAVYYCNARGQVYSTLSSYRYDYWGQGTQVTVSS | high polyreactivity
QVQLVESGGGLVQAGGSLRLSCAASGGIFIVNAMGWYRPAPGKERELVAAITLSGGSTYYADSVKGRFTISRDNAKNTVYFQMNSLKPEDTAVYYCNKDYYPGSYDYWGQGTQVTVSS | low polyreactivity
QVQLVESGGGLVQAGGSLRLSCAASGGIFKRNTMGWYRQAPGKERELVAGISWTGGRTYYADSVKGRFTISSDNAKNNVYLPPNSLKPEDTAVYYCAAKPLQGVRRVEYWGQGTQVTVSS | high polyreactivity
QVQLVESGGGLVQAGGSLRLSCAASGGIFLYNAMGWYRQAPGKERELVAAISRSGGGTYYADSVKGRFTISRDNAKNTVYLQMNSLKPEDTAVYYCAKTLRAYSDYYYWGQGTQVTVSS | high polyreactivity
QVQLVESGGGLVQAGGSLRLSCAASGGIFNSYTMGWYRQAPGKERELVAAITKRGGSTYYADSVKGRFTISRYNAKNTVYLQMNSLKPEDTAVYYCAAGATVQFDYWGQGTQVTVSS | high polyreactivity
QVQLVESGGGLVQAGGSLRLSCAASGGIFPLYAMGWYRQAPGKERELVASITSGGSTYYADSVKGRFTISRDNAKNTVYLQMNSLKPEDTAVYYCAADLRITSYNSWGQGSQVTVSS | low polyreactivity
QVQLVESGGGLVQAGGSLRLSCAASGGIFPYYAMGWYRQAPGKERELVADISSGGSTYYADSVKGRFTISRDNAKNSVYLQMNSLKPDDTAVYYCAADAGQYFTYSGDDNHDYWGQGTQVTVSS | low polyreactivity
QVQLVESGGGLVQAGGSLRLSCAASGGIFQGYTMGWYRQAPGKERELVAAISRRGGSTYYADSVKGRFTNSRDNAKNTVYLQMNSVKPEDTAVYYCAAGKPLQLPRYDYWGQGTQVTVSS | low polyreactivity
QVQLVESGGGLVQAGGSLRLSCAASGGIFRDYAMGWSRQAPGKERELVAAISRSGDSTYYADSVKGRFTISRDNAKNTVYLQMNSLKPEDTAVYSCAADWLWAWHYYGAMDYWGQGTQVTVSS | high polyreactivity
QVQLVESGGGLVQAGGSLRLSCAASGGIFRKNAMGWYRQAPGKERELVAAISWDGDNTYADSVKGRFTISRDNAKNTVYLQMNSLKPEDTAVYYCAAETFTDYDYWGQGTQVTVSS | high polyreactivity
QVQLVESGGGLVQAGGSLRLSCAASGGIFRKYVMGWYRQAPGKERELVAAISTSGGSTYYADSVKGRFTISRDNAKNSVYLQMNSLKPEDTAVYYCAADILYFYGPRVFEFNYWGQGTQVTVSS | high polyreactivity
QVQLVESGGGLVQAGGSLRLSCAASGGIFRWYAMGWYRQAPGKEREFVAVITTDGGSTYYADSVKGRFTISRDNAKNTVYLQMNSLKPEDTAVYYCAADYTLIYDYWGQGTQVTVSS | low polyreactivity
QVQLVESGGGLVQAGGSLRLSCAASGGIFSLYAMGWYRQAPGKERELVAAISRRGTITYYADSVKGRFTISRDNAMNTVYLQMNSLKPEDTAVYYCAALWHAVFYADYDYWGQGTQVTVSS | high polyreactivity
QVQLVESGGGLVQAGGSLRLSCAASGGIFSRNAMGWYRQAPGKERELVADISRTGDSTYYADSVKGRFTISRDNAKNTVYLQMNSLKPEDTAVYYCNRDAFVGDRTVRVTTTNWGQGTQVTVSS | low polyreactivity
QVQLVESGGGLVQAGGSLRLSCAASGGIFSRYAMGWYRQAPGKEREFVAAISFSGASTYYTDSVKGRFTISRDTAKNTVYLQMNSLKPEDTAVYYCAAYWDAEGRRYTRLDYWGQGTQVTVSS | low polyreactivity
QVQLVESGGGLVQAGGSLRLSCAASGGIFSRYGLGWYRQAPGKERELVAAITGRGGSTYYADSVKGRFTISRDNAKNTVYLQMNSLKPEDTAVDYCAAKVRSLNWFDYWGQGTQVTVSS | high polyreactivity
QVQLVESGGGLVQAGGSLRLSCAASGGIFSSYAMGGYRQAPGKERELVASISRRGTSTYYADSVKGRFTISRDNAKNTVYLQMNSLKPEDTAVYYCAAGTKYTSAVHFYYWGQGTQVTVSS | high polyreactivity
QVQLVESGGGLVQAGGSLRLSCAASGGIFSSYAMGWYRQAPGKERELVASISRRGTSTYYADSVKGRFTISRDNAKNTVYLQMNSLKPEDTAVYYCAAGTKYTSAVHFYYWGQGTQVTVSS | high polyreactivity
QVQLVESGGGLVQAGGSLRLSCAASGGIFSTYTMRWYRQAPGKERELVAAITTGNSTYYADSVKGRFTISRDNAKNTVYLQMNSLKPEDTAVYYCAAFAASRDYYRRLFHDGYDYWGQGTQVTVSS | low polyreactivity
QVQLVESGGGLVQAGGSLRLSCAASGGIFSYYAMGWYRQAPGKEREFVAAIDWGGGSTYYADSVKGRFTISRDNAKNTVYFQMNSLKPEDTAVYYCAAEIYPIGWDDYDYWGQGTQVTVSS | low polyreactivity

Sequence | polyreactivity (PSR sort gate)
QVQLVESGGGLVQAGGSLRLSCAASGGIFTGYAMGWYRQAPGKERELVASITISGGRTYYADSVKGRFTISRDNAKNTVYLQINSLKPEDTAVYYCAATIPWYKYRYYYWGQGTQVTVSS | high polyreactivity
QVQLVESGGGLVQAGGSLRLSCAASGGIFTYYTMGWYRQAPGKERELVAAISRRVGRTYYADSVKGRFTISRDKANNTVYLQMNSLKPEDTAVYYCNADSRRRLFDYWGQGTQVTVSS | high polyreactivity
QVQLVESGGGLVQAGGSLRLSCAASGGIFVGNAMGWYRQAPGKERELVAAISQRGGRTYYADSVKGRFTISRDNAKNTVYLQMNSLKPEDTAVYYCAAGYWLSTDSGYPFQYYLYDYWGQGTQVTVSS | high polyreactivity
QVQLVESGGGLVQAGGSLRLSCAASGGIFVRYAMGWYRQAPGKERELVAAISSSGDRTYYADSVKGRFTISRDNAKNTVYLQMHSLKPEDTAVYYCNADRGHDKVDYWGQATQVTVSS | low polyreactivity
QVQLVESGGGLVQAGGSLRLSCAASGGIFVSYAMGWYRQAPGKERELVARINAVDGTNYADSVKGRFTISRDNAKYTVYLQMKSVKPEDTAVYYCAVRSPVLASDYGYYFLRDYWGQGTQVTVSS | low polyreactivity
QVQLVESGGGLVQAGGSLRLSCAASGGIFVSYAMGWYRQAPGKEWELVAAITSGGGTSYADSVKGRFTISRDNAKNTVYLQMNSLKPEDTAVYYCNADGYLAERFVIRLDEYRHYDYWGQGTQVTVSS | low polyreactivity
QVQLVESGGGLVQAGGSLRLSCAASGGIFWSYAMGWYRQAPGKERELVAAISSGTYYADSVKGRFTISRDNAKNTVYLQMNSLIPEDTAVYYWNVQTYNVAWFYRYDMNYWGQGPQVTVSS | low polyreactivity
QVQLVESGGGLVQAGGSLRLSCAASGGIFWYNAMGWYRQAPGKERELVADISSSGITYYADSVKGRFTISRDNAKNTVYLQMKSLKPEDTAVYYCAADSTTRPGLRVYDDYDYWGQGTQVTVSS | low polyreactivity
QVQLVESGGGLVQAGGSLRLSCAASGGIFWYYAMGWYRQAPGKERELVAAINSGGSTYYADSVKGRFTISRDNAKNTVYLQMNSLNPEDTAVYYCNTRYPFSRYDYWGQGTQVTVSS | low polyreactivity
QVQLVESGGGLVQAGGSLRLSCAASGGIFYAYAMGWYRQAPGKERELVAAISISDGDTYYADSVKGRFTISRDNAKNTVYLQMNSLKPEDTAVYYCAAEQEYDLREYDYWGQGTQVTVSS | high polyreactivity
QVQLVESGGGLVQAGGSLRLSCAASGGIFYLYAMGWYRQAPGKEREFVAAISSSGGSTNYADSVKGRFTISRDNAKNTVYLQMNSLKPEDTAVYYCAARWLPFLDLGKTYEYWGQGTQVTVSS | high polyreactivity
QVQLVESGGGLVQAGGSLRLSCAASGGIFYSNAMGWYRQAPGKERELVAVISGNGGRTYYADSVKGRFTISRDNAKNTVYLQMNSLKPEDTAVYYCATPSYTTAYVEGDYWGQGTQVTVSS | low polyreactivity
QVQLVESGGGLVQAGGSLRLSCAASGGIFYTYAMGWYRQAPGKEREFVAAISRRGSSTYYADSVKGRFTISRDNEKNTVYLQMNSLKPEDTAVYYCAKSYAPYSYANNDYWGQGTQVTVSS | low polyreactivity
QVQLVESGGGLVQAGGSLRLSCAASGGIISTNAMGWYRQAPGKERDLVAAISRRGGSTYYADSVKGRFTISRDYAKNSVYLQMNCLKPEDTAVYYCNKYLRLFSYGRGYDYWGQGTQVTVSS | high polyreactivity
QVQLVESGGGLVQAGGSLRLSCAASGGILDTSAMGWYRQAPGKERELVAAITSGGHTNYADSVKGRFTISRDNAKNTVYLQMNSLKPEDTAVYYCNVVTWYYVFRPWEYDYWGHGTQVTVSS | low polyreactivity
QVQLVESGGGLVQAGGSLRLSCAASGGILPKYAMGWYRQAPGKERELVAAIDGGGDSTYYADSVKGRFTISRDNAKNTVYLQMNSLKPEDTAVFYCAAYQWTGYYLEYDYWGQGTQVTVSS | low polyreactivity
QVQLVESGGGLVQAGGSLRLSCAASGGILSDYAMGWYRQAPWKERELVAAITISGGRTNYADSVKGRFTISRDNAKNTVYLQMNSLKPEDTAVYYCAAGFYPYYYWGQGTQVTVSS | low polyreactivity
QVQLVESGGGLVQAGGSLRLSCAASGGILTKYAMGWYRQAPGKEREFVAAISWRGGTTYYADSVKGRFTISRDNAKNTVYLQMNSLKPEDSAVYYCAADILWYFGQEYDYWGKGTQVTVSS | low polyreactivity
QVQLVESGGGLVQAGGSLRLSCAASGGILVGYALGWYRQAPGKERELVAAITSTGSTYYADSVKGRFTISRDNAKNTVYLQMNSLKPEDTAVYYCNAIGLHRYDYWGQGTQETVSS | low polyreactivity
QVQLVESGGGLVQAGGSLRLSCAASGGILVGYAMGRYRQAPGKERELVAANNYSGGSTNYADSVKGRFTISRDNAKYSVYLQMNSLKPEDTAVYFCAARSTARYGYWGQGTQVTVSS | low polyreactivity
QVQLVESGGGLVQAGGSLRLSCAASGGISHRYAMGWYRQAPGKERELVAAITASGTSTNYADSVKGRFTISRDNAKNTVYLQMNSLKPEDTAVYYCAARYYSFFYPYYYWGQGTQVTVSS | high polyreactivity

Source: the nanobody polyreactivity screen of Harvey et al. (2022)
